Measured values from US8242078B2, “Therapeutics to inhibit MLL-menin interaction for treating leukemia” (The University of Chicago, priority 2006, dated 2012).
“Also recorded” adds a separate entry of the source.

Key:
[1] = target: T1, interaction of transfected MLL with endogenous menin (Homo sapiens, UniProt O00255); test: Disruption of binding of transfected FLAG-tagged MLL 1-330 to endogenous menin (anti-FLAG immunoprecipitation, anti-menin Western blot); conditions: each peptide tested at 10, 20, and 30 μM
T1 construct: endogenous in cells; host or cells: 293 cells (lysate; cells transfected with FLAG-MLL 1-330)
T1 sequence (O00255 1-610): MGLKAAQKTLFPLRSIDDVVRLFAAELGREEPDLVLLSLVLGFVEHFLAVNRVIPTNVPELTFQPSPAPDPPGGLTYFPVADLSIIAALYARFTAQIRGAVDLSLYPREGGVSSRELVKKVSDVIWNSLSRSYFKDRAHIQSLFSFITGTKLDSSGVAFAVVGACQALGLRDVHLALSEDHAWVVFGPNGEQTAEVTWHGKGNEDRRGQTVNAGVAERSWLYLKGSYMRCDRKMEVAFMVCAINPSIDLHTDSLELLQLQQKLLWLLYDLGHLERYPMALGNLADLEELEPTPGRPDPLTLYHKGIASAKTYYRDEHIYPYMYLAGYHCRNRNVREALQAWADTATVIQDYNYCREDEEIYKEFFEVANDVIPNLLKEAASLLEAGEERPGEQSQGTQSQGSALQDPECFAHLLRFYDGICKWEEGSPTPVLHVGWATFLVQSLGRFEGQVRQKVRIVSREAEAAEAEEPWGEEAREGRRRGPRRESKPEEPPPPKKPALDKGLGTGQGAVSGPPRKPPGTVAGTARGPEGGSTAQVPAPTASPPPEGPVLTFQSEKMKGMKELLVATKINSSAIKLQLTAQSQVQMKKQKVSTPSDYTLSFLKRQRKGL
Protocol: To determine the precise domain that mediates the binding of MLL to menin, a series of peptides from the N-terminus of MLL were synthesized. To assess disruption of binding of transfected MLL to endogenous menin, a FLAG-tagged MLL 1-330 construct was transfected into 293 cells and the cell lysates were incubated with a series of peptides listed below or with water as a control. Cell lysates were immunoprecipitated with anti-FLAG antibody (Sigma), separated by SDS-PAGE and blotted with an anti-menin antibody (Bethyl Laboratories Inc, or Santa-Cruz). The amino acid numbers from the N-terminus of MLL are indicated below (preceding the amino acid sequence) for the peptides analyzed for their ability to disrupt the interaction of MLL and menin.
Conditional inactivation of menin results in the reversal of the transforming properties of MLL fusion proteins. A high affinity menin binding domain has been localized to the N-terminal residues of MLL, and deletion of residues 6 through 10 of MLL prevents MLL-ELL from transforming hematopoietic progenitor cells. To target the MLL-menin interaction, a series of peptides were developed for the potential to block the interaction of menin with MLL. To establish the activity of these peptides, lysates of cells transfected with FLAG-tagged N-terminal MLL sequences were examined. The lysates were immunoprecipitated with a FLAG antibody, incubated with either an MLL peptide or a control scrambled peptide, and then blotted with an anti-menin antibody. […] To examine the activity of the TAT-MLL peptide, mouse and human leukemia cell lines were treated with the TAT-MLL peptide. […] (#TIB-202, American Type Culture Collection, Manassas, Va.).

[2] = tested on: Leukemia cell lines; test: Relative growth inhibition of TAT-MLL vs TAT-MLL mutant (MTS cell proliferation assay); assay type: cell-based

In the case of “RKKRRQRRR-GG-CRWRFGARGG (SEQ ID NO: 16) (RKKRRQRRRGGCRWRFGARGG) [TAT-MLL-G 5-14, TAT-MLL 5-14 peptide with prolines replaced by glycines, used as a control, reference compound]”, the “inhibition of the binding of transfected MLL 1-330 to endogenous menin (Western blot, FIG. 2)” value [1] is reported as “did not inhibit the binding of MLL1-330 with menin; also recorded: did not block the interaction of MLL with menin” and the “effect on proliferation, TAT-MLL vs TAT-MLL mutant (FIG. 6)” value [2] is reported as “significantly decreases the effect of the peptide on proliferation”.
